Literature values, collected in patent publication US10966977B2, “Combination of anti-CD20 antibody, P13 kinase-delta selective inhibitor, and BTK inhibitor to treat b-cell proliferative disorders” (TG Therapeutics, Inc., priority 2016, dated 2021).
Entries after “also recorded” stand apart in the source; their conditions may differ. Structures can show the parent of a compound that is named as a salt. Values belong to the molecule of their own block, whether it stands above or below them.

What was measured:
CD20 = target: T1, CD20 (Homo sapiens, UniProt P11836)
T1 sequence (P11836 1-297): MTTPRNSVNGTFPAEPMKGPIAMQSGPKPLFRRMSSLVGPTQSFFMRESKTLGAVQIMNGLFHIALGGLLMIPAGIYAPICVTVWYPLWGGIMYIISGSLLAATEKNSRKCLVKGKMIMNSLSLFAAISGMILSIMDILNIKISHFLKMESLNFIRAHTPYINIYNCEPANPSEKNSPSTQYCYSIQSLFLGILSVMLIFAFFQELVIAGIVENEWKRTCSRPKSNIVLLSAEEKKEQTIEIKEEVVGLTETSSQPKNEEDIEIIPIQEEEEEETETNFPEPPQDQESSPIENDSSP

[1] = system: relapsed and refractory hematologic malignancies; conditions: single agent
CD20 antigen = target: T2, CD20 antigen (Homo sapiens, UniProt P11836)
T2 sequence (P11836 1-297): T1 sequence (P11836 1-297)

[2] = single agent

dissociation rate from CD20 compared to rituximab (CD20): slower rate
Molecule: ofatumumab: anti-CD20 IgG1κ human monoclonal antibody

Molecule: CC(C)Oc1ccc(-c2nn([C@@H](C)c3oc4ccc(F)cc4c(=O)c3-c3cccc(F)c3)c3ncnc(N)c23)cc1F [TGR-1202, (S)-2-(1-(4-amino-3-(3-fluoro-4-isopropoxyphenyl)-1H-pyrazolo[3,4-d]pyrimidin-1-yl)ethyl)-6-fluoro-3-(3-fluorophenyl)-4H-chromen-4-one p-toluenesulfonic acid (PTSA) salt]
hepatic toxicity [1]: no reported hepatic toxicity
tolerability ([1]; patients with relapsed or refractory hematologic malignancies): well-tolerated

B1: Ublituximab: chimeric monoclonal antibody targeting a unique epitope on the CD20 antigen, glycoengineered for enhanced affinity for Fcγ RIIIa receptors (antibody, V domains shown)
VH: QAYLQQSGAELVRPGASVKMSCKASGYTFTSYNMHWVKQTPRQGLEWIGGIYPGNGDTSYNQKFKGKATLTVGKSSSTAYMQLSSLTSEDSAVYFCARYDYNYAMDYWGQGTSVTVSS
VL: QIVLSQSPAILSASPGEKVTMTCRASSSVSYMHWYQQKPGSSPKPWIYATSNLASGVPARFSGSGSGTSYSFTISRVEAEDAATYYCQQWTFNPPTFGGGTRLEIK
modifications: Ublituximab Variable heavy chain; Ublituximab Variable light chain
ADCC activity compared with rituximab and ofatumab (CD20 antigen): greater antibody-dependent cellular cytotoxicity
responses in rituximab refractory patients [2]: Responses with single agent ublituximab were observed in rituximab refractory patients; also recorded: Responses with single agent ublituximab have been observed in rituximab refractory patients
